In this data set the target is H1.2 2-108 (UniProt P16403 2-108). Briefly: fluorescence polarization. On the technique in general: Polarisation of emitted light reports the rotation of a fluorescent probe.
H1.2 2-108, sequence (P16403 2-108): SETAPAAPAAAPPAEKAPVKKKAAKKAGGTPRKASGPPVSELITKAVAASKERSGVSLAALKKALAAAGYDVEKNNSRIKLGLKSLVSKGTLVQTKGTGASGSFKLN

B1: fluorescein-labeled 30-mer DNA (printed strands are 27 nt) (dsDNA)
DNA 1: ATCATTAATATGAATTCGCCACATGCA
DNA 2: TGCATGTGGCGAATTCATATTAATGAT
Turning to B1, the binding signal was 50 fold lower affinity than full-length H1.2.

The values are drawn from doi:10.1101/2022.02.17.480967.
